Biological target: Bcl-xL∆L∆CT (C-terminal and loop-truncated Bcl-xL)
Test: SAXS; purified OM-induced Bcl-xL dimer, 1 mg/ml and 3 mg/ml, 15 °C; mass from forward scattering against lysozyme

Bcl-xL∆L∆CT (C-terminal and loop-truncated Bcl-xL) (domain or fragment)
stoichiometry N: 2

Reference: publication PMC4448555
